The series deals with HEK293T. In words: median enrichment of reporter reads in eGFP-reduced (low/intermediate) vs eGFP-high sorted cells (eGFP-extension fusion abundance) (ratio); higher = stronger loss of eGFP-fusion protein abundance (more destabilising extension).

Values joined by “and” are separate entries in the source; they are usually repeats but may differ in a detail not shown here. Equal entries are not always repeated.
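Also: lentiviral eGFP-IRES-mCherry reporter pool sorted by FACS 96 h post-transduction, gated on mCherry-high cells, Illumina read counts normalized per million, median across four biological replicates.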

Turning to CCCCCCCCC [Cys09], the median enrichment turned out to be 7.96.
Consider YAPL [SLC3A1], for which the median enrichment was 0.632.
Turning to RCLELCCCQHDLFGA [TPH2], the median enrichment was 5.32.
As for WCPPKP [FAM8A1], the median enrichment stood at 0.371.
As for “LLGGPGRRVPPSPCQGPGDPLPGCLRLLLRRGNAKKEKEKPRARPLPPAVHCAASSVPGLTVPLSSAPARQGTCSQPWVDLFF [NRXN2]”, the median enrichment amounted to 6.99.
With YKP [ATP6V1A] the figure was 0.175; with “WPVPGALLRPTTASWVGRTGSGGKSQRDQDGGCGAAFPVASIARRVFVCLSVFLTSFFYIFISRQS [NR6A1]”, 9.66; with YILYNCEINLR [OR4F4], 5.6.
With “KRGCGSQGGLQGTGMSGGHQAQRKRKQREFTGPPEKSQSDVCRHLPIPASLARALLGPEQRRTCPTHTAIYSSRHRAPLPYSW [CRHR2]” the figure was 4.02; with “YSHPPPLGVPNVPSAVPAAAPLHPQLHHPLSHSRSCTPAFQLCPRGF [PRKCG]”, 3.59; with “TPAPGLGRELTRTGCSQKAGPSLSPKPLLDLWRSCRLDREAVPLSSPSPSRASPWSFRSSFWGLFQVRRMEEGGQATQHPPTP [FOXN4]”, 5.36.
With “WAAPPGRWGAPLNDSVILKRWLGSWEKPSGCPLGNLHIISVLLVMSRWRGHRCAVSCSRNY [C19orf12]” the figure was 22.
Regarding QLPMPPQNWLLRVN [TSC22D1], the median enrichment was 4.17.
With RGLRRGLTEP [SLC22A6] the figure was 0.442; with “CDAQTASSATKRPENSRFTTFLSHVEAFPFNRGPSSEPRPISAIFFS [LMBR1]”, 12; with REQ [UNC93A], 5.69.
With SAIHL [XKR9] the figure was 0.425; with “GTQSSLLAVDFPLLLEPPIKEIQRDSCRPEAEHTFMAGALRGVLDPAPGDTIHFYCFVVTRALQPVFLKNQGPLPPPLPWGET [PLOD1]”, 6.78.
Turning to LRKLILLIFMTNLYICF [RGS18], the median enrichment is 14.1.
With “RQTSQSSQPGLHPPWLPPAHMAPSTGLQPGAREL [HOOK2]”, the median enrichment was 11.1.
With LLLLLL [Leu06] the figure was 6.86.
With SAPCSTPSPPHPPWAGS [MOSPD3] the figure was 4.09; with QGTCPGSS [UBE2T], 0.477.
On to “WGHRSEMRGLECGWAPGAMGGCGAGEIKSELLLPGVPTSSSGQSVHSQPDR [BCL2]”, for which the median enrichment was 5.52.
Then “RGRLNPPNINSHPSLHSCLPLFTFILRVQKFQVSFELYFVCQFHAYFSFIRES [CNTD1]”, with 5.36; and “CVARALGVLLEAPRASRIASQLPGQPTLLQPLTRTPVIRTGAPVPWSPPWAHVLTQAQQ [OVOL1]”, with 8.09; and “LDALAMAQEKPARKNQTDFHTKEEASIFFFLFFIGVVTKPFRLLLFKI [QRICH1]”, with 10.6.
On to LAHEPTRMSSDFQPHPSGSCAKGGGRR [TREM1], for which the median enrichment amounted to 0.974.
For “CGILRWLACWAWGLLTDSMEQGWAVCAHAQHALRGGGGGRGFLMSVQELKVSGVLPRICPTPHDKTELCNKQYQFILAVGFCF [WDR6]”, the median enrichment was 9.47.
RHRGKRRKSC [CLDN1]: the median enrichment was determined as 0.381.
As to WWWWWW [Trp06], the median enrichment stood at 3.74.
With KHLHVLSNFACPFSSVSE [CYB5R2] the figure was 2.44.
Then WNHRSGRSRALSSCTVFIVPGTLFKDI [LIN7B], with 4.84.
Then WFYILTS [CLHC1], with 5.45; and “PCRHHPPPSPCPQPVCPVPCPPQAWWWQWRRLRRLKRLTGRGAFCLAHCPDDPPAPSRLQQQSPRRTGWTEEKEVDCCTHTER [SOX10]”, with 3.84; and “LEKPSSFVETVALQPWRRTCWYLKNGTFATQD [DOCK8]”, with 6.15.
Consider DDD [Asp03], for which the median enrichment was determined as 0.645.
For SEEQPSFVPVVFIKYPLHP [WDR54], the median enrichment turned out to be 6.65.
Regarding GVWLSHGIPGKGLTQ [PTPA], the median enrichment amounted to 2.08.
With SGWGWTNNQARAEGFMERPLGDPR [S1PR2] the figure was 0.739; with YGTDGRRGPGTPGMGGPNP [GATA2], 1.68; with WVKEEKPSTP [TAS2R19], 0.336.
As to “QRPVLVSHPCHSRSLPVPLLPKMPWLDWTPSPHDHASDCHPLPVPKSMCTPLTTGTAPPNHRHQATI [PTPRCAP]”, the median enrichment worked out at 8.88.
Regarding “WASSPPAHVMKQRFGLVAHCLWPPSPAQPQASQPQTLESPTTMERWAVAMVDGLPGWAFELALGTTRLSLSSHGTQKCAAMLP [ADGRG1]”, the median enrichment worked out at 5.77.
On to “WCLGSTCLLSPQGLSLASLQWGCCVSVHLRLLCLCLLHHAGVWEEWTDRG [TCL1A]”, for which the median enrichment stood at 4.56.
As to “RLHTCMLSPRGNGLYIAHFTLFRRHFIPALVLLEGLSRQSSSCSASVCDSPPSTPMALSLGDSSSPRKEGGVAEDLQPWPRGA [PRKAB1]”, the median enrichment is 7.16.
Then “RVTFQVVPWAPGSGLWPTFSTFRPICTGCWQGGGRELTGTEGLGTQPFSTCAYRLDLSLLQKPALLCWLAGPVAAG [EIF6]”, with 6.39; and RRR [Arg03], with 0.663; and NNN [Asn03], with 0.227.
Take “SQPSPPSPGAAWGGKSCSLRRAQLAGAVPGHGRFPVTHSLRKPGVIGHLAGQRSWGWF [CLCN6]”: the median enrichment was 3.27.
YKKEKKAKKKK [IQCA1]: the median enrichment stood at 0.422.
On to SKTNTFYLWEAVPRFQPEL [ZBTB21], for which the median enrichment turned out to be 11.3.
With SKGQLPGKTRF [PHLDA1], the median enrichment was determined as 1.67.
For YMFVWN [STKLD1], the median enrichment was 6.18.
Regarding RIQPKCQVRSEGIFH [ABCC4], the median enrichment amounted to 1.49.
As to SSSSLFLGNSLLFLPHGRCK [MAX], the median enrichment stood at 4.93.
For the substance CHLRNI [MLLT10], the median enrichment was 1.38.
With RAHELRL [TNFAIP8] the figure was 0.408.
Regarding QKMTQKLEPTKLLTPC [ADGRL3], the median enrichment stood at 1.01.
Take LPNFTSSGESLTLNQRPSTALAPQTSP [ABCB5]: the median enrichment was determined as 0.355.
As to “GHACLPNTIWSWTTFDTNQSYWTRPLEDLKYTSHAVVYLGCDSLSNAALGKDESDLQGEKCNHTWAPVNYGTEGPNCSPKGAA [APOBEC2]”, the median enrichment stood at 3.91.
“SLYGAICPPSPSRTLEGTSAPAGLGPPLSLLQASWCLHTSGSWPRKSQQEQGMGEGRCHTTWR [CISH]”: the median enrichment turned out to be 4.49.
With “QKGSGPGIHVGGRGRGGRREGRGEIHTVDTLTSWPKSLPQDLPDLHGQASYGGVSISFFLFLFPGLRASWGPRFTNSPTPLKL [AQP1]”, the median enrichment worked out at 6.27.
With “HTTGQGCGAGAIPAPFPGPRGLGSLPSHPGLVPPGAPTVEIRRGWNGGRGGAGGPHPSAALGLGPHPSGGPEAGGGNPRGWLF [GNB2]” the figure was 0.37; with CIFFYQEG [PTEN], 6.73 and 8.49.
Take SVLPAHLGLVLALPRPL [LRSAM1]: the median enrichment was 14.6.
For the substance “KPERSQDPSRQHQLTDALVVPPSSPDCARSAVPSSGHLSSLWVPPHPSPC [RBP5]”, the median enrichment is 5.79.
As for WEKSYKCKECGKPLDDPQTLMNMRKFIL [ZNF141], the median enrichment was 11.7.
With “VSHAYAHAQPPSGSLESRADTHSHTHCLAKNTPCLPCHSPHSHSLSPDPCLSLDCRGTTHLFGIQGPQPTVPSPINCSRAPHK [FOXP3]” the figure was 2.58; with “GAFFLEEESENFQTTAADSALMGCWLIGVLSMGDWNFFFV [ZNHIT6]”, 8.19.
With “CQVLCGAEIPCRHFACSNQQDPAPRSPGAIIMQPAVLLWRGQVTFQKTPSWMGLPFCSSPHSRISNGSLL [BCL2L11]” the figure was 11.
With GCGLNCRLTK [MYO16] the figure was 0.777; with “RMSSFIRIWALSSFFSTHFPLPGPPLIQMPPSDSSWKPFLQLGQYDF [MSANTD2]”, 33.9.
For IIIIIIIII [Ile09], the median enrichment worked out at 9.46.
As for “LPHHTPDHQESQGCCFATHQHRFAQKLCPRLGRSYFKKTWFSWSRWLTPVIPALWEAKPDGS [COG7]”, the median enrichment came to 8.59.
In the case of “AESLGSDLAAWGESLGSVLAAWGAGIAQSMNGPTPAKAESLGPVSPAAHGTGIAHGVRSVHLQGLRPWAQSALLLRVQALHMV [WNT9A]”, the median enrichment came to 7.26.
For QTGWPGPNP [EMILIN3], the median enrichment turned out to be 0.352.
With QVVHIYGIWYEILICVYNT [ZNF230] the figure was 47.2; with YTCPYSSRALNLLLTNHLLRC [KCNU1], 11.9.
With “GVPAHSCGKGGEGRRARPEQGAGGRAQYLTRAAVLINVPMAGPRSEPASSATVTFSLRDGGGGSLSRWLSRPRSRPWVLSQLG [DUSP9]” the figure was 4.83; with LSLTASLK [TEX35], 1.49.
On to “SQKHVHFGKQACILPVQYLHSTDGTVWRSTFSYFCESIHVGPVSRICTFVPSTVTANLSV [ARHGEF3]”, for which the median enrichment was found to be 10.6.
Consider RQADEGATLTQSPQKAKCDSQVSSLTQR [PCARE], for which the median enrichment was determined as 0.302.
In the case of WVLIPTFPCDLGCRCSCCKMEANLTGVL [ADD2], the median enrichment worked out at 6.13.
On to YQVIAEQMNRPPASVANTRSISLGQWTNT [LCP2], for which the median enrichment stood at 2.43.
Turning to NNNNNNNNNN [Asn10], the median enrichment came out at 0.3.
Turning to QAVNSTFKVI [LMNTD1], the median enrichment stood at 0.803.
On to QEATDRVSLVIRSQRFTI [ITM2A], for which the median enrichment turned out to be 15.6.
On to RHRRTPGDFLYICRLRLFVTSKWDIV [TAF4], for which the median enrichment was 12.
For the substance “SAASWPWGRGLGCGAVWVLSSSPLPRPSLSNPAWDLGFNAEAMSLSGPASGYSHPGTEKAADGDCLPQPQQHLGLQLLESYHP [LGALS9]”, the median enrichment was 7.86.
On to LGFRSAT [KIF15], for which the median enrichment amounted to 1.28.
Then CRFLLKLTLFHLSF [VHL], with 24.3 and 30.2.
For QTSLHFILF [FABP1], the median enrichment came to 24.1.
On to “WRKRDAGTHPCLREVWLSPNPPHRPPFTKHLSCLMCPIELHSVRLDAVISGTYVTMFAEAPGVVGRGGRCG [RNF144A]”, for which the median enrichment was 6.33.
For LNCSQLEML [DNAJC24], the median enrichment amounted to 0.695.

These data come from the supplement of paper PMC11502859.
